Experimental data from the supplement of paper PMC9112550, “Optimization of the antimicrobial peptide Bac7 by deep mutational scanning” (BMC Biology, 2022).

system: Escherichia coli TOP10; experiment: shrunken log2 fold change of peptide-encoding DNA abundance (4.5 h post-induction vs induction); higher = less antimicrobial activity (less host growth inhibition); conditions: time post-induction: 4.5 h; library: site-saturation at positions 5, 18, 19, 20
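Further: peptides expressed intracellularly from a pBAD plasmid library in pooled LB shake-flask culture, induced with 0.3% L-arabinose, DNA abundance read by NGS, three biological replicates, DESeq2 with apeglm shrinkage.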

Row | Sequence | shrunken log2 fold change
1 | RRIRDRPPRLPRPRPRPSLDPRP | -0.0616
2 | RRIRDRPPRLPRPRPRPSLMPRP | 0.175
3 | RRIRDRPPRLPRPRPRPSMMPRP | 0.636
4 | RRIRDRPPRLPRPRPRPSNSPRP | -0.365
5 | RRIRDRPPRLPRPRPRPSSHPRP | -0.124
6 | RRIRDRPPRLPRPRPRPSVFPRP | 0.423
7 | RRIRDRPPRLPRPRPRPSWEPRP | -0.00136
8 | RRIRDRPPRLPRPRPRPSYPPRP | -0.2
9 | RRIRDRPPRLPRPRPRPSYVPRP | -0.206
10 | RRIRDRPPRLPRPRPRPTEGPRP | -0.0161
11 | RRIRDRPPRLPRPRPRPTGIPRP | 0.26
12 | RRIRDRPPRLPRPRPRPTGQPRP | -0.0665
13 | RRIRDRPPRLPRPRPRPTHLPRP | -0.175
14 | RRIRDRPPRLPRPRPRPTINPRP | 0.135
15 | RRIRDRPPRLPRPRPRPTKNPRP | 0.0799
16 | RRIRDRPPRLPRPRPRPTLMPRP | 0.114
17 | RRIRDRPPRLPRPRPRPTLPPRP | -0.027
18 | RRIRDRPPRLPRPRPRPTMKPRP | 0.192
19 | RRIRDRPPRLPRPRPRPTPFPRP | -0.13
20 | RRIRDRPPRLPRPRPRPTPLPRP | 0.484
21 | RRIRDRPPRLPRPRPRPTPSPRP | 0.368
22 | RRIRDRPPRLPRPRPRPTQFPRP | 0.216
23 | RRIRDRPPRLPRPRPRPTQHPRP | 0.396
24 | RRIRDRPPRLPRPRPRPTQIPRP | 0.114
25 | RRIRDRPPRLPRPRPRPTQRPRP | 0.746

Row | Sequence | shrunken log2 fold change
26 | RRIRDRPPRLPRPRPRPTQSPRP | 0.439
27 | RRIRDRPPRLPRPRPRPTQTPRP | 0.121
28 | RRIRDRPPRLPRPRPRPTRFPRP | 0.0657
29 | RRIRDRPPRLPRPRPRPTRPPRP | 1.13
30 | RRIRDRPPRLPRPRPRPTRYPRP | 0.317
31 | RRIRDRPPRLPRPRPRPTSHPRP | -0.146
32 | RRIRDRPPRLPRPRPRPTVIPRP | -0.118
33 | RRIRDRPPRLPRPRPRPVCCPRP | 0.967
34 | RRIRDRPPRLPRPRPRPVCRPRP | 0.251
35 | RRIRDRPPRLPRPRPRPVCSPRP | 0.222
36 | RRIRDRPPRLPRPRPRPVFVPRP | 0.225
37 | RRIRDRPPRLPRPRPRPVGIPRP | -0.0542
38 | RRIRDRPPRLPRPRPRPVHIPRP | -0.144
39 | RRIRDRPPRLPRPRPRPVHPPRP | 0.184
40 | RRIRDRPPRLPRPRPRPVHRPRP | 0.0594
41 | RRIRDRPPRLPRPRPRPVHSPRP | -0.243
42 | RRIRDRPPRLPRPRPRPVIPPRP | 0.471
43 | RRIRDRPPRLPRPRPRPVIRPRP | -0.19
44 | RRIRDRPPRLPRPRPRPVMDPRP | 0.114
45 | RRIRDRPPRLPRPRPRPVMKPRP | -0.0716
46 | RRIRDRPPRLPRPRPRPVMPPRP | -0.189
47 | RRIRDRPPRLPRPRPRPVPNPRP | -0.0123
48 | RRIRDRPPRLPRPRPRPVQGPRP | -0.01
49 | RRIRDRPPRLPRPRPRPVRSPRP | 0.155
50 | RRIRDRPPRLPRPRPRPVSEPRP | 0.514

Row | Sequence | shrunken log2 fold change
51 | RRIRDRPPRLPRPRPRPVSKPRP | 0.0275
52 | RRIRDRPPRLPRPRPRPVTYPRP | -0.0305
53 | RRIRDRPPRLPRPRPRPVVPPRP | 0.0405
54 | RRIRDRPPRLPRPRPRPVWGPRP | 0.67
55 | RRIRDRPPRLPRPRPRPVYAPRP | -0.025
56 | RRIRDRPPRLPRPRPRPVYWPRP | -0.469
57 | RRIRDRPPRLPRPRPRPWAEPRP | 0.302
58 | RRIRDRPPRLPRPRPRPWAVPRP | -0.066
59 | RRIRDRPPRLPRPRPRPWCYPRP | 0.155
60 | RRIRDRPPRLPRPRPRPWECPRP | -0.0018
61 | RRIRDRPPRLPRPRPRPWGSPRP | -0.0321
62 | RRIRDRPPRLPRPRPRPWHDPRP | 0.0315
63 | RRIRDRPPRLPRPRPRPWHEPRP | -0.266
64 | RRIRDRPPRLPRPRPRPWHKPRP | -0.11
65 | RRIRDRPPRLPRPRPRPWHPPRP | -0.0206
66 | RRIRDRPPRLPRPRPRPWICPRP | -0.298
67 | RRIRDRPPRLPRPRPRPWIHPRP | -0.0487
68 | RRIRDRPPRLPRPRPRPWKFPRP | 0.0062
69 | RRIRDRPPRLPRPRPRPWNHPRP | -0.00185
70 | RRIRDRPPRLPRPRPRPWNTPRP | -0.166
71 | RRIRDRPPRLPRPRPRPWPDPRP | 0.129
72 | RRIRDRPPRLPRPRPRPWWLPRP | 0.0758
73 | RRIRDRPPRLPRPRPRPWWNPRP | -0.0921
74 | RRIRDRPPRLPRPRPRPWYYPRP | 0.0606
75 | RRIRDRPPRLPRPRPRPYADPRP | -0.155
